Stoichiometry N data for one molecule are collected here from publication PMC4058522, “Structural Basis for Phosphorylation-Dependent Recruitment of Tel2 to Hsp90 by Pih1” (Structure(London, England:1993), 2014).

This test has as its target T1, Tah1 (yeast, full-length) (yeast), P25638.
T1 chain: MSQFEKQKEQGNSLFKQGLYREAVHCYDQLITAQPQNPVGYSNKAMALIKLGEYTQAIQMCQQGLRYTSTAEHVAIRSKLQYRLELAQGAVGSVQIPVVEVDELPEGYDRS
Kind of test: cross-linking; lysine-specific crosslinker DMS, in solution, SDS-PAGE. As to conditions: remark: other sources report otherwise.

B1: Tah1 (yeast, full-length), P25638 1-111 (natural protein)
chain: MSQFEKQKEQGNSLFKQGLYREAVHCYDQLITAQPQNPVGYSNKAMALIKLGEYTQAIQMCQQGLRYTSTAEHVAIRSKLQYRLELAQGAVGSVQIPVVEVDELPEGYDRS
Broadly, the stoichiometry N is a count of units in the complex or per binding partner. In turn, B1 came in with a stoichiometry N of 2.
